Measured values: patent US20240262919A1 (SHANGHAITECH UNIVERSITY, published 2024)

T1: human IL-18Rα ECD Fc fusion (816-LR-100; R&D Systems) (human, UniProt Q13478 22-329)
T1 construct: extracellular domain; Bought protein; also called Human receptor; not shown: Fc tag of the bought fusion protein, not described
T1 sequence (looked up): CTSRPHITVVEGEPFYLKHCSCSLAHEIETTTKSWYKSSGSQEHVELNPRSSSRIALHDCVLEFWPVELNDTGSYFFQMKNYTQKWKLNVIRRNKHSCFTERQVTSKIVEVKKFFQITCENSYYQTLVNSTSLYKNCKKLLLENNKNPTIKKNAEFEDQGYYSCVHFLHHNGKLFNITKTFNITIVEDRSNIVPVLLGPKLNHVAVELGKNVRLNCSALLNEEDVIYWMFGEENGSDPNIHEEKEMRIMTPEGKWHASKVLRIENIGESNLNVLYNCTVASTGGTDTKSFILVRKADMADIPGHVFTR

T2: human IL-18Rβ ECD Fc fusion (118-AP-100, R&D Systems) (human, UniProt O95256 20-356)
T2 construct: Bought protein; also called hIL-18Rβ; recombinant human IL-18Rb; not shown: Fc tag of the bought fusion protein, not described
T2 sequence: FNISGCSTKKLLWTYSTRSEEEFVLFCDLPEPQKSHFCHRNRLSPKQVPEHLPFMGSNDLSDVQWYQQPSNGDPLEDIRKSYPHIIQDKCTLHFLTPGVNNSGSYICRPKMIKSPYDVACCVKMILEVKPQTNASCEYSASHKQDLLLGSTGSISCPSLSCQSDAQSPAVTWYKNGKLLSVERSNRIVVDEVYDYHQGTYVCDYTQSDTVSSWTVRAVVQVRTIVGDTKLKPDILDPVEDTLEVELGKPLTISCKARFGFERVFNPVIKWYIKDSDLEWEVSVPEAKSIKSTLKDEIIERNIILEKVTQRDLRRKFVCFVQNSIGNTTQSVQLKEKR

T3: mouse IL-18Rβ (mouse, UniProt Q9Z2B1 20-356, limits assumed)
T3 construct: also called Mouse receptor; mouse ortholog
T3 sequence (looked up): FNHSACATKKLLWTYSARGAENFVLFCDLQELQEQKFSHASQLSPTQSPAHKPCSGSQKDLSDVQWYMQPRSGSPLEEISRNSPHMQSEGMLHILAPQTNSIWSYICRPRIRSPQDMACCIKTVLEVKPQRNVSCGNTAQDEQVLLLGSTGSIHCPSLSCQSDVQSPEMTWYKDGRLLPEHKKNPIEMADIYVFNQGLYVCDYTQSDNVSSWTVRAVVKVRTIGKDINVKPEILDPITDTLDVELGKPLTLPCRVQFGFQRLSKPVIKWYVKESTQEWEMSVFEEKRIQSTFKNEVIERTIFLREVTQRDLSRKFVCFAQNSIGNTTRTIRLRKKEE

T4: Rhesus IL-18Rβ (rhesus, UniProt F7HHC1 20-356)
T4 construct: also called rhesus IL-18 receptor beta; monkey IL-18Rβ
T4 sequence: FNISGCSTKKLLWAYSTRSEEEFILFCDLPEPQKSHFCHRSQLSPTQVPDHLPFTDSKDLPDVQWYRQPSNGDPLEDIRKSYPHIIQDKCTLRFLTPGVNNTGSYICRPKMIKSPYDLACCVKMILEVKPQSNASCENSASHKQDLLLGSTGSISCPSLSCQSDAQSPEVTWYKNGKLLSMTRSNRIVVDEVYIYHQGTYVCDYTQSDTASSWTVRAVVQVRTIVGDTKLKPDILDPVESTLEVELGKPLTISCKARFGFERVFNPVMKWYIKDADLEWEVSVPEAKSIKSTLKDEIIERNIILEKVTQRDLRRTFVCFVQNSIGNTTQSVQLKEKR


Experiments:
[1] = molecular target: T1, human IL-18Rα ECD Fc fusion …; experiment: SPR, Fab on human receptor
[2] = molecular target: T1, human IL-18Rα ECD Fc fusion …; experiment: multipoint direct binding ELISA (drawn table, column EC50 (nM)); the cell equals that of row A3
[3] = molecular target: T1, human IL-18Rα ECD Fc fusion …; experiment: competitive binding ELISA with soluble receptor (drawn table, column IC50 (nM)); the cell equals that of row A3
[4] = molecular target: T1, human IL-18Rα ECD Fc fusion …; experiment: direct binding ELISA on immobilised human IL-18Rα (target after legend paragraph 36 and the table of panel C), OD 450 against concentration; panel title and axes say IgG, the key and legend say Fab
[5] = molecular target: T1, human IL-18Rα ECD Fc fusion …; experiment: competitive ELISA with a dilution series of soluble receptor; the axis is printed 'Soluble hIL18Rβ concentration (nM)', but legend paragraph 36 and the table of panel C give IL-18Rα for this trace; the competitor is the immobilised receptor; y axis printed 'Inhibition (%)'
[6] = molecular target: T2, human IL-18Rβ ECD Fc fusion …; experiment: SPR (Table 5 title), Fab on human receptor
mouse IL-18Rβ = molecular target: T3, mouse IL-18Rβ; experiment: SPR (Table 5 title), Fab on mouse receptor
[7] = molecular target: T2, human IL-18Rβ ECD Fc fusion …; experiment: multipoint direct binding ELISA (drawn table, column EC50 (nM))
[8] = molecular target: T2, human IL-18Rβ ECD Fc fusion …; experiment: competitive binding ELISA with soluble receptor (drawn table, column IC50 (nM))
[9] = molecular target: T2, human IL-18Rβ ECD Fc fusion …; experiment: biolayer interferometry (BLI) after legend paragraph 36; drawn table, head KD (nM), Human receptor
[10] = molecular target: T2, human IL-18Rβ ECD Fc fusion …; experiment: biolayer interferometry (BLI) after legend paragraph 36; drawn table, head kd (10^-4 s^-1), Human receptor
[11] = molecular target: T2, human IL-18Rβ ECD Fc fusion …; experiment: biolayer interferometry (BLI) after legend paragraph 36; drawn table, head ka (10^4 M^-1 s^-1), Human receptor
[12] = molecular target: T2, human IL-18Rβ ECD Fc fusion …; experiment: direct binding ELISA on immobilised human IL-18Rβ, OD 450 against concentration; panel title and axes say IgG, the key and legend paragraph 36 say Fab
[13] = molecular target: T2, human IL-18Rβ ECD Fc fusion …; experiment: competitive ELISA: signal on immobilised receptor after incubation with a two-fold dilution series of soluble hIL-18Rβ; the concentration axis is the soluble receptor; y axis printed 'Inhibition (%)'
Rhesus IL-18Rβ [14] = molecular target: T4, Rhesus IL-18Rβ; experiment: SPR
Rhesus IL-18Rβ [15] = molecular target: T4, Rhesus IL-18Rβ; experiment: multipoint direct binding ELISA

Binder | Kd [6] | koff [6] | kon [6] | Kd (mouse IL-18Rβ) | koff (mouse IL-18Rβ) | kon (mouse IL-18Rβ) | EC50 [7] | IC50 [8] | Kd [9] | koff [10] | kon [11] | EC50 (read off the curve) [12] | IC50 (read off the curve) [13] | also measured
Fab 12 (Fab, Anti-IL-18Rα Fab; also called F12) heavy: EVQLVESGGGLVQPGGSLRLSCAASGFNISSSSIHWVRQAPGKGLEWVASISPSYSSTYYADSVKGRFTISADTSKNTAYLQMNSLRAEDTAVYYCARGAFDYWGQGTLVTVSSASTKGPSVFPLAPSSKSTSGGTAALGCLVKDYFPEPVTVSWNSGALTSGVHTFPAVLQSSGLYSLSSVVTVPSSSLGTQTYICNVNHKPSNTKVDKKVEPKSCDKTHT light: DIQMTQSPSSLSASVGDRVTITCRASQSVSSAVAWYQQKPGKAPKLLIYSASSLYSGVPSRFSGSRSGTDFTLTISSLQPEDFATYYCQQYWHPFTFGQGTKVEIKRTVAAPSVFIFPPSDSQLKSGTASVVCLLNNFYPREAKVQWKVDNALQSGNSQESVTEQDSKDSTYSLSSTLTLSKADYEKHKVYACEVTHQGLSSPVTKSFNRGECGGSDYKDDDDK | – | – | – | – | – | – | – | – | – | – | – | – | – | Kd [1]: 1.9 nM; koff [1]: 0.0002 s⁻¹; kon [1]: 110000 M⁻¹ s⁻¹; EC50 [2]: 86 nM; IC50 [3]: 105 nM; EC50 (read off the curve) [4]: ~0.8 nM; IC50 (read off the curve) [5]: ~20 nM
Fab 3131 (Fab, also called F3131) heavy: EVQLVESGGGLVQPGGSLRLSCAASGFNLYYSSMHWVRQAPGKGLEWVASIYSSYGYTYYADSVKGRFTISADTSKNTAYLQMNSLRAEDTAVYYCARSSFSHGYGWYGLDYWGQGTLVTVSSASTKGPSVFPLAPSSKSTSGGTAALGCLVKDYFPEPVTVSWNSGALTSGVHTFPAVLQSSGLYSLSSVVTVPSSSLGTQTYICNVNHKPSNTKVDKKVEPKSCDKTHT light: DIQMTQSPSSLSASVGDRVTITCRASQSVSSAVAWYQQKPGKAPKLLIYSASSLYSGVPSRFSGSRSGTDFTLTISSLQPEDFATYYCQQYGYHYAGLITFGQGTKVEIKRTVAAPSVFIFPPSDSQLKSGTASVVCLLNNFYPREAKVQWKVDNALQSGNSQESVTEQDSKDSTYSLSSTLTLSKADYEKHKVYACEVTHQGLSSPVTKSFNRGECGGSDYKDDDDK | 6.2 nM | 0.00127 s⁻¹ | 210000 M⁻¹ s⁻¹ | 5.2 nM | 0.00062 s⁻¹ | 120000 M⁻¹ s⁻¹ | 16 nM | 82 nM | 6.1 nM | 0.0013 s⁻¹ | 210000 M⁻¹ s⁻¹ | ~0.3 nM | 1 to 2 nM | –
Fab 3132 (Fab, also called F3132) heavy: EVQLVESGGGLVQPGGSLRLSCAASGFNISYYYIHWVRQAPGKGLEWVASIYSYSGYTSYADSVKGRFTISADTSKNTAYLQMNSLRAEDTAVYYCARASAMDYWGQGTLVTVSSASTKGPSVFPLAPSSKSTSGGTAALGCLVKDYFPEPVTVSWNSGALTSGVHTFPAVLQSSGLYSLSSVVTVPSSSLGTQTYICNVNHKPSNTKVDKKVEPKSCDKTHT light: DIQMTQSPSSLSASVGDRVTITCRASQSVSSAVAWYQQKPGKAPKLLIYSASSLYSGVPSRFSGSRSGTDFTLTISSLQPEDFATYYCQQHWWASVPPFTFGQGTKVEIKRTVAAPSVFIFPPSDSQLKSGTASVVCLLNNFYPREAKVQWKVDNALQSGNSQESVTEQDSKDSTYSLSSTLTLSKADYEKHKVYACEVTHQGLSSPVTKSFNRGECGGSDYKDDDDK | – | – | – | – | – | – | 33 nM | 74 nM | 133 nM | 0.0013 s⁻¹ | 10000 M⁻¹ s⁻¹ | ~0.5 nM | ~9 nM | –
Fab 3144 (Fab, also called F3144) heavy: EVQLVESGGGLVQPGGSLRLSCAASGFNLSYYSIHWVRQAPGKGLEWVASIYSYSGYTSYADSVKGRFTISADTSKNTAYLQMNSLRAEDTAVYYCARSSAMDYWGQGTLVTVSSASTKGPSVFPLAPSSKSTSGGTAALGCLVKDYFPEPVTVSWNSGALTSGVHTFPAVLQSSGLYSLSSVVTVPSSSLGTQTYICNVNHKPSNTKVDKKVEPKSCDKTHT light: DIQMTQSPSSLSASVGDRVTITCRASQSVSSAVAWYQQKPGKAPKLLIYSASSLYSGVPSRFSGSRSGTDFTLTISSLQPEDFATYYCQQHWWGYPLITFGQGTKVEIKRTVAAPSVFIFPPSDSQLKSGTASVVCLLNNFYPREAKVQWKVDNALQSGNSQESVTEQDSKDSTYSLSSTLTLSKADYEKHKVYACEVTHQGLSSPVTKSFNRGECGGSDYKDDDDK | 1.8 nM | 0.00058 s⁻¹ | 320000 M⁻¹ s⁻¹ | 12.9 nM | 0.0012 s⁻¹ | 93000 M⁻¹ s⁻¹ | 16 nM | 19 nM | 6.4 nM | 0.0011 s⁻¹ | 170000 M⁻¹ s⁻¹ | ~0.4 nM | ~2 nM | –
IgG 3131 (antibody, V domains shown, IgG made by sub-cloning the Fab CDR regions into IgG expression constructs; VL-CL with FLAG tag; also called I3131) VH: EVQLVESGGGLVQPGGSLRLSCAASGFNLYYSSMHWVRQAPGKGLEWVASIYSSYGYTYYADSVKGRFTISADTSKNTAYLQMNSLRAEDTAVYYCARSSFSHGYGWYGLDYWGQGTLVTVSS VL: DIQMTQSPSSLSASVGDRVTITCRASQSVSSAVAWYQQKPGKAPKLLIYSASSLYSGVPSRFSGSRSGTDFTLTISSLQPEDFATYYCQQYGYHYAGLITFGQGTKVEIKR | – | – | – | – | – | – | – | – | – | – | – | – | – | Kd (Rhesus IL-18Rβ [14]): 3.9 nM; koff (Rhesus IL-18Rβ [14]): 0.00015 s⁻¹; kon (Rhesus IL-18Rβ [14]): 38000 M⁻¹ s⁻¹; EC50 (Rhesus IL-18Rβ [15]): 11.5 nM
